From patent US20240228627A1, “GALECTIN-1-SPECIFIC MONOVALENT ANTIBODIES AND USES THEREOF” (INSTITUT NATIONAL DE LA RECHERCHE SCIENTIFIQUE, priority 2021, published 2024)

B1: G1N1 nanobody (galectin-1-specific VHH, clone D06) (VHH)
VHH: EVQLQASGGGFVQPGGSLRLSCAASGSTFSEDAMGWFRQAPGKEREFVSAISGFANPHSYYADSVKGRFTISRDNSKNTVYLQMNSLRAEDTATYYCAASHKKTRAPAATFETYWGQGTQVTVSS
notes: From a synthetic humanized nanobody library (hsd2Ab); For apoptosis, MST and ELISA it was made in E. coli from pHEN2 with 6xHis and cMyc tags; also called GAL-1-specific Nb #1; lead VHH clone G1N1; not shown: 6xHis and cMyc tags from vector pHEN2
B2: G1N2: galectin-1-specific single-domain VHH nanobody, SEQ ID NO:9; weak-binding second clone from phage display (protein)
VHH: MAEVQLQASGGGFVQPGGSLRLSCAASGSTYFHTAMGWFRQAPGKEREFVSAISGFANPHRYYASSVKGRFTISRDNSKNTVYLQMNSLRAEDTATYYCANLISTNRGWLMGYWCQGTQVTVSS
modifications: G1N2 VHH

Assays:
[1] = molecular target: T1, recombinant human galectin-1 (human, UniProt P09382 2-135); experiment: microscale thermophoresis, Red-NHS labeled G1N1 (2 nM), human galectin-1 titrated; value in brackets is the 95% CI
T1 construct: Recombinant, made in E. coli BL21(DE3) from pET-22b(+); also called hGAL-1; GAL-1
T1 sequence (P09382 2-135 limits assumed): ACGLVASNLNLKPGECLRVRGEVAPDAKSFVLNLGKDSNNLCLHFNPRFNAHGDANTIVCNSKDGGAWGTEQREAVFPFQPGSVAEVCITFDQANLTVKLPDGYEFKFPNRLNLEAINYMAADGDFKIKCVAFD
Description: (§1) FIG. […] In the same experiment, no binding was detected at 10 μM for human GAL-7, mouse GAL-7, human GAL-8 and human GAL-13. All experiments were performed in 20 mM Tris-HCl 150 mM NaCl and 0.1% F127. Binding affinities (Kd values) were determined from the fitted curves (three parameter dose-response curve) obtained from data of at least 3 independent experiments. For each value, 95% confidence intervals (Cl) are indicated.

[2] = molecular target: T1, recombinant human galectin-1; experiment: microscale thermophoresis, Red-NHS labeled human GAL-1 (5 nM), G1N1 titrated; value in brackets is the 95% CI
Description: as §1, with “FIG. 9A: Red-NHS labeled human GAL-1 (5 nM) incubated with G1N1 or alpha-lactose (a-lactose).” for “FIG.”

human galectin-7 = molecular target: T2, human galectin-7 (human, UniProt P47929 1-136); experiment: ELISA, human galectin-7 immobilized at 1 µM, anti-His-tag detection [left panel (1 µM]
T2 construct: Recombinant, made in E. coli; also called human GAL-7; Gal-7
T2 sequence (P47929 whole entry): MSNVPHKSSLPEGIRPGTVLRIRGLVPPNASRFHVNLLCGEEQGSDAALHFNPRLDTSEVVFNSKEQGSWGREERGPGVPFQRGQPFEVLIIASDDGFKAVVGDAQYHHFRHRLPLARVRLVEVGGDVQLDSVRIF
Description: (§2) Briefly, human galectins were immobilized at 1 and 5 μM for 16 h at 4° C. After a blocking step with PBS containing 10% (v/v) BSA (blocking buffer), increasing concentrations of G1N1 were added to each well and incubated for 1 h at room T° C. […] The colorimetric assay was carried out with 3,3′,5,5′-tetramethylbenzidine (Sigma-Aldrich, ON, Canada) according to the manufacturers recommendations.
(§3) ELISA assays. Recombinant human galectins were immobilized in 96-well plates at the indicated concentrations for 16 h at 4° C. After a blocking step with PBS containing 10% (v/v) bovine serum albumin (BSA) (blocking buffer), increasing concentrations of G1N1 were added to each well and incubated for 1 h at room temperature. […] The colorimetric assay was carried out with TMB (Sigma-Aldrich, MO, USA) according to the manufacturer's recommendations.

human galectin-13 = molecular target: T3, human galectin-13 (human, UniProt Q9UHV8 1-139); experiment: ELISA, human galectin-13 immobilized at 1 µM, anti-His-tag detection [left panel (1 µM]
T3 construct: Recombinant, made in E. coli; also called human GAL-13; Gal-13
T3 sequence: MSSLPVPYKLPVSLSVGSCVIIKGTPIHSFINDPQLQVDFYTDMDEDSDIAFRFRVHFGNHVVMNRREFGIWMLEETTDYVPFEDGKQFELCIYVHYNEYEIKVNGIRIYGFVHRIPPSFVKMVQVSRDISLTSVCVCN
Description: as §2, §3

[3] = molecular target: T1, recombinant human galectin-1; experiment: microscale thermophoresis (MST), Red-NHS labeled human GAL-1 (5 nM) with G1N1 or alpha-lactose
Description: as §1, with “FIG. 9A: Red-NHS labeled human GAL-1 (5 nM) incubated with G1N1 or alpha-lactose (a-lactose).” for “FIG.”

[4] = molecular target: T4, recombinant mouse galectin-1 (mouse, UniProt P16045 2-135); experiment: microscale thermophoresis, Red-NHS labeled G1N1 (2 nM), mouse galectin-1 titrated; value in brackets is the 95% CI
T4 construct: also called mGAL-1
T4 sequence (P16045 2-135 limits assumed): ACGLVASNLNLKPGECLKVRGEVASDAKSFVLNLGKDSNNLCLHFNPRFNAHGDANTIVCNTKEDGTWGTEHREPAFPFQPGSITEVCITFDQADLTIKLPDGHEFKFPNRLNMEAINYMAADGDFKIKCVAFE

mouse galectin-7 = molecular target: T5, mouse galectin-7 (mouse, UniProt O54974 1-136, limits assumed); experiment: microscale thermophoresis, Red-NHS labeled G1N1 (2 nM)
T5 construct: also called mouse GAL-7
T5 sequence (looked up): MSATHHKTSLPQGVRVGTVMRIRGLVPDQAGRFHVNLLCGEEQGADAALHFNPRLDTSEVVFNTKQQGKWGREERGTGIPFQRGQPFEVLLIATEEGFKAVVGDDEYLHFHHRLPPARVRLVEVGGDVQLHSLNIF
Description: as §1, with “FIG. 9A: Red-NHS labeled human GAL-1 (5 nM) incubated with G1N1 or alpha-lactose (a-lactose).” for “FIG.”

human galectin-2 = molecular target: T6, human galectin-2 (human, UniProt P05162 1-132); experiment: ELISA, human galectin-2 immobilized at 1 µM, anti-His-tag detection [left panel (1 µM]
T6 construct: Recombinant, made in E. coli; also called Gal-2
T6 sequence: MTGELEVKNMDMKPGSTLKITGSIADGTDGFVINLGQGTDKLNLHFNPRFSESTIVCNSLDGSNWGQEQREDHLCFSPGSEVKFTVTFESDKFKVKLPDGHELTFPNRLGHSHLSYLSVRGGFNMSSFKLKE
Description: as §2, §3

[5] = molecular target: T7, recombinant human GAL-1 (rhGAL-1) (Homo sapiens, UniProt P09382); experiment: inhibition of galectin-1-induced apoptosis of Jurkat T cells (annexin V/propidium iodide flow cytometry); assay type: cell-based; settings: rhGAL-1 2.25 μM, 4 h at 37° C., increasing concentrations of nanobody
T7 construct: made in house; host or cells: E. coli BL21 (DE3), pET-22b(+)
T7 sequence (P09382 whole entry): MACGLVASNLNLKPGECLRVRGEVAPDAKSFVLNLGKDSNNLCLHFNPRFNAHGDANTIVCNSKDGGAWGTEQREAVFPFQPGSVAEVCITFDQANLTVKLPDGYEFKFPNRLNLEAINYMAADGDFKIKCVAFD
Description: Briefly, Jurkat T cells were incubated with recombinant human GAL-1 (rhGAL-1; 2.25 μM) for 4h at 37° C. in presence of increasing concentrations of G1N1 and G1N2. Apoptosis was measured by flow cytometry using conventional annexin V/propidium iodide staining. Results represent data recorded on 5000 cells. Errors bars represent standard deviation.
Jurkat T cells were incubated with increasing concentrations of G1N1 pre-incubated with rhGAL-1 (2.25 μM) for 4 h at 37° C., after which apoptosis was measured by flow cytometry using Annexin V/propidium iodide staining. 5000 events were recorded. Errors bars represent standard deviation.
Apoptosis of human T cells. In vitro apoptosis assays were carried out using the standard in vitro human Jurkat T cell model system, fluorescein isothiocyanate (FITC)-labeled annexin V (Biolegend, San Diego, CA, USA) and propidium iodide (PI). Briefly, recombinant galectin-1 was pre-incubated for 1 h at 4° C. in serum free RPMI 1640 medium before addition to Jurkat cells. The mixture was incubated at 37° C. for 4 h. Cells were then washed once in PBS and once in binding buffer (0.01 M HEPES, 0.14 M NaCl, 2.5 mM CaCl2, pH 7.4). For staining, cells were incubated for 15 min with FITC-labeled annexin V in the dark at room temperature. The PI (0.25 μg/mL) stain was added to cells just before analysis by flow cytometry.

[6] = molecular target: T8, GAL-1-Biotin (biotinylated human GAL-1) (Homo sapiens, UniProt P09382); experiment: non-adsorbed phage ELISA of VHH clones on GAL-1-Biotin; assay type: binding; settings: HRP-conjugated anti-M13 antibody, TMB substrate; 282 clones tested
T8 construct: made in house; host or cells: E. coli BL21 (DE3), pET-22b(+)
T8 sequence (P09382 whole entry): as above
Description: Generation and production of single chain camelid antibodies. Galectin-specific single chain (VHH) camelid antibodies were obtained following in vitro screening of a non-immune humanized synthetic single domain antibodies (hsd2Ab) library that contains more than 3×10^9 clones expressed at the surface of M13 phage [Moutel et al., 2016]. The panning was carried out against immobilized recombinant human galectin-1 devoid of carbohydrate in its glycan binding site (GBS). Prior to the phage display selection, galectin-1-biotin and GST-Biotin were bound to streptavidin magnetic beads (Dynabeads® M-280 Streptavidin, Life Technologies) with a 50 nM final concentration of biotinylated protein for the first round and 10 nM final concentration of biotinylated protein for the second and third rounds. […] Following three-rounds of phage display, clones were picked randomly and analyzed by non-adsorbed phage ELISA using HRP-conjugated anti-M13 antibody (GE Healthcare) and a colorimetric substrate (TMB, tetramethylbenzidine, Thermo Fischer).
Following an initial pre-screen round of phage display carried out with GST-biotin to deplete the library from unspecific binders, unbound VHHs were incubated with GAL-1-Biotin beads. […] A total of 282 VHHs were then picked and analyzed by ELISA for galectin-1 binders.

Molecule	Kd [1] [nM]	Kd [2] [nM]	binding result (human galectin-7)	binding result (human galectin-13)	fold higher affinity than lactose for galectin-1 [3] [fold]	Kd [4] [nM]	binding result (mouse galectin-7)	binding result (human galectin-2)	inhibition of galectin-1-induced apoptosis of Jurkat T cells [5]	binding in phage ELISA in the presence of GAL-1-Biotin [6]
B1	750	87	no binding (tested: 10 µM)	no binding (tested: 10 µM)	~200	24.6	no binding (tested: 10 µM)	no binding (tested: 10 µM)		
B2									not	weak binding
